The target of assay [1] is T1, PD1-Fc recombinant protein (human, UniProt Q15116 25-167).
T1 construct: range 25-167; also called PD1-Fc antigen; PD1-Fc protein; not shown: human IgG1 Fc tag at the C-terminus
Briefly: phage ELISA, wells coated with PD1-Fc (Fc and blocked wells as controls). Background: In an ELISA, binding on a coated surface is turned into a signal by an enzyme label.

Assay [2] has as its target T1, PD1-Fc recombinant protein. Put plainly: SPR, PD1-Fc immobilized on CM5 chip, antibody as mobile phase.

A word on the Kd: it is the constant that tells how readily two partners part at equilibrium. As a reminder, the koff is a measure of how fast the partners let go of each other. Broadly, the kon is a measure of how fast the partners come together.

T1 sequence (Q15116 25-167 limits assumed): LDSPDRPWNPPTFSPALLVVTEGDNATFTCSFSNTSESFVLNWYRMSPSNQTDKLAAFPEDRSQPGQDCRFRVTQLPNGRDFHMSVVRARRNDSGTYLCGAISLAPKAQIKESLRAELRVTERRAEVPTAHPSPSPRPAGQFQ

B1: 2-C10 VHH displayed on phage (clone from cross-panning) (VHH)
VHH: QVQLVESGGGLVQPGGSLRLSCAASGFSLDAYTIGWFRQAPGQEREGISCISRSGRITNYARSAKDRFTISRDNAKNTVYLEMKNLRPEDTGAYYCAAVEMDPFLCSGYTQSYDQWGQGTQVTVSS
notes: Tested as a phage monoclone (pComF display vector, M13) in phage ELISA; the phage fusion partner is not described
Consider B1, for which the binding result in assay [1] is “binds”.

B2: 2-C10-(G4S)3-2-B1 bivalent PD1 antibody (with human IgG1 Fc) (Fc fusion)
chain: QVQLVESGGGLVQPGGSLRLSCAASGFSLDAYTIGWFRQAPGQEREGISCISRSGRITNYARSAKDRFTISRDNAKNTVYLEMKNLRPEDTGAYYCAAVEMDPFLCSGYTQSYDQWGQGTQVTVSSGGGGSGGGGSGGGGSQVQLVESGGGLVQPGGSLTVSCAASGFSLDAYTIGWFRQAPGKEREGIICISRGGRITNYAHSVKDRFTISRDGAKNTVYLHMNSLKPEDTGAYYCAAVQRDPFICSGYTQSYDHWGQGTQVTVSS
notes: Two VHH joined by (G4S)3, subcloned in tandem with human IgG1 Fc; purified on Protein A; not shown: human IgG1 Fc, in tandem C-terminal (vector pcDNA3.4-hIgG1-Fc2)
Consider B2, for which, in assay [2], the Kd is 21.1 pM, the koff amounted to 3.29e-05 s⁻¹ and the on-rate (kon) worked out at 1.56e+06 M⁻¹ s⁻¹.

B3: 2-C10-(G4S)3-2-F3 bivalent PD1 antibody (with human IgG1 Fc) (Fc fusion)
chain: QVQLVESGGGLVQPGGSLRLSCAASGFSLDAYTIGWFRQAPGQEREGISCISRSGRITNYARSAKDRFTISRDNAKNTVYLEMKNLRPEDTGAYYCAAVEMDPFLCSGYTQSYDQWGQGTQVTVSSGGGGSGGGGSGGGGSQVKLEESGGGLVQPGGSLTVSCVASGFSLDAYTIGWFRQAPGKEREGIICISRGGRITNYAHSVKDRFTISRDGAKNMVYLHMNSLKPEDTGAYYCAAVQRDPFICSGYTQSYDLWGQGTQVTVSS
notes: as for B2
For B3, in assay [2], the dissociation constant Kd came out at 280 pM, the off-rate constant (koff) is 8.92e-05 s⁻¹ and the on-rate constant (kon) was 318000 M⁻¹ s⁻¹.

B4: 2-F3-(G4S)3-2-B1 bivalent PD1 antibody (with human IgG1 Fc) (Fc fusion)
chain: QVKLEESGGGLVQPGGSLTVSCVASGFSLDAYTIGWFRQAPGKEREGIICISRGGRITNYAHSVKDRFTISRDGAKNMVYLHMNSLKPEDTGAYYCAAVQRDPFICSGYTQSYDLWGQGTQVTVSSGGGGSGGGGSGGGGSQVQLVESGGGLVQPGGSLTVSCAASGFSLDAYTIGWFRQAPGKEREGIICISRGGRITNYAHSVKDRFTISRDGAKNTVYLHMNSLKPEDTGAYYCAAVQRDPFICSGYTQSYDHWGQGTQVTVSS
notes: as for B2
As to B4, in assay [2], the Kd came out at 282 pM, the koff is 0.000118 s⁻¹ and the on-rate (kon) amounted to 418000 M⁻¹ s⁻¹.

Source of the values: patent publication US20260242474A1 (PERSONGEN BIOTHERAPEUTICS SUZHOU, published 2026).
